Assay results published in US20060135432A1, “Agonists and antagonists of conadotropin-releasing hormone-2, and use thereof” (priority 2002, published 2006).
[ ]: non-standard residue; d: D form. dPhe(4-Cl) = N[C@H](Cc1ccc(Cl)cc1)C(=O)O; d2Nal = N[C@H](Cc1ccc2ccccc2c1)C(=O)O; dCit = NC(=O)NCCC[C@@H](N)C(=O)O; d3Pal = N[C@H](Cc1cccnc1)C(=O)O

B1: Cetrorelix (peptide)
peptide: Ac-[d2Nal][dPhe(4-Cl)][d3Pal]SY[dCit]LRP[dA]-NH2
B2: Trptorelix-1 (peptide)
peptide: Ac-[d2Nal][dPhe(4-Cl)][d3Pal]SY[dCit]WYP[dA]-NH2

What was measured:
[1] = molecular target: bfGnRHR-3 (bullfrog); assay: cell-based or functional assay; details: for Log IC50, inhibition of GnRH-2-induced inositol phosphate production in GH3 cells expressing the receptor: scale: log IC50
[2] = molecular target: rat GnRHR (rat) (UniProt P30969); assay: cell-based or functional assay; details: scale: log IC50
[3] = molecular target: rat GnRHR (rat) (UniProt P30969); assay: displacement of I^125-GnRH-2 from membranes of GH3 cells expressing rat GnRHR; details: scale: log IC50
[4] = molecular target: bfGnRHR-3 (bullfrog); assay: displacement of I^125-GnRH-2 from membranes of GH3 cells expressing bfGnRHR-3; details: scale: log IC50

Sequence of rat GnRHR (rat) (P30969 whole entry): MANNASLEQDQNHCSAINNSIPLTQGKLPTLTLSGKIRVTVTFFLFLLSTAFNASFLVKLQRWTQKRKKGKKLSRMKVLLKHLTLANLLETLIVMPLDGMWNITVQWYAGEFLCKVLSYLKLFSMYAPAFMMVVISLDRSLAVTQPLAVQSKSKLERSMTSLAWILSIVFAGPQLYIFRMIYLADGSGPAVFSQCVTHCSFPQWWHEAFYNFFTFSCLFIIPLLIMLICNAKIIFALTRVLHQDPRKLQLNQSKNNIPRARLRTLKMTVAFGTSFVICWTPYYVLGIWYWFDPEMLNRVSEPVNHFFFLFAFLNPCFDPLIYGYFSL

| Binder | Log IC50, inhibition of GnRH-2-induced inositol phosphate production in GH3 cells expressing the receptor [1] | Log IC50, inhibition of GnRH-induced inositol phosphate production in GH3 cells expressing the receptor [2] | log IC50 [3] | log IC50 [4] | inhibition of GnRH-2-induced IP production, sensitivity compared with Cetrorelix (fold more sensitive than Cetrorelix) [1] |
| --- | --- | --- | --- | --- | --- |
| B1 | -6.28 | -11 | -12.6 | -7.11 | – |
| B2 | -8.49 | -9.27 | -11.8 | -11.7 | 1000 |
